Drawing on patent US20170101464A1, this text covers Kd, koff and kon for one molecule.

This assay concerns the target hTEM8-AP (UniProt Q9H6X2). The assay is described as follows: Biacore affinity measurement, Fab.
Chain of UniProt Q9H6X2 (Q9H6X2 33-321): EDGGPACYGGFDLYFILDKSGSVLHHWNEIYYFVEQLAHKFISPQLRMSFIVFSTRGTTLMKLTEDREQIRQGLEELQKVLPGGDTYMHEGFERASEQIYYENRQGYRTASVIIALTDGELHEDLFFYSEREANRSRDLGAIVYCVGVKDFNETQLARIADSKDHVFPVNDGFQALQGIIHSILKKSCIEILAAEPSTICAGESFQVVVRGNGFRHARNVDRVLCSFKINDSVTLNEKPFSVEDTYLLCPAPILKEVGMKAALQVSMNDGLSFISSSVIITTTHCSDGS

B1: M825 anti-TEM8 Fab (Fab, V domains shown)
VH: QVQLVQSGAEVKKPGTSVKVSCKVPGYTFSSYAISWVRQAPGQGLEWMGGIIPIFGTTNYAQKFQGRVTITGEESTSTVYMELSSLRSEDTAVYYCARDTDYMFDYWGQGTLVTVSS
VL: SSELTQDPVVSVALGETVSITCQGDNLRDFYASWYQQKPGQAPLLVMYGKNRRPSGIPDRFSGSTSGNTLSLTITGAQAEDEADYYCSSRDNSKHVVFGGGTKVTVL
Molecule B1 showed a dissociation constant Kd of 0.0591 nM, a koff of 0.00018 s⁻¹ and a kon of 3.05e+06 M⁻¹ s⁻¹.

The Kd is a measure of binding affinity in units of concentration. Higher therefore signals lower affinity. In general, koff refers to the rate constant with which the complex falls apart. Low values mean a long-lived complex, high ones a short-lived complex. Usually kon stands for the rate constant with which the complex forms.
